Reference: patent US20210252150A1

How the values were obtained:
[1] = target: T1, HA of A/California/04/2009 (H1N1) (influenza A virus (H1N1)), P26140; assay: ELISA, recombinant HA; conditions: remark: other sources report otherwise
[2] = target: T1, HA of A/California/04/2009 (H1N1) …; assay: ELISA; conditions: remark: other sources report otherwise
[3] = target: HA of A/Indonesia/5/2005 (H5N1) (influenza A virus (H5N1))
[4] = target: HA of A/Netherlands/219/2003 (H7N7) (influenza A virus (H7N7))
[5] = target: HA of A/mallard duck/Astrakhan/263/1982 (H14N5) (influenza A virus (H14N5))
[6] = target: HA of A/Hong Kong/1073/99 (H9) (influenza A virus (H9))
[7] = target: HA of A/Shanghai/2/2013 (H7N9) (influenza A virus (H7N9))
[8] = target: HA of A/shearwater/Western Australia/2576/1979 (H15N9) (influenza A virus (H15N9))
[9] = target: T1, HA of A/California/04/2009 (H1N1) …; assay: ELISA, recombinant HA; conditions: remark: other sources report otherwise; remark: listed apart in the source
[10] = target: T1, HA of A/California/04/2009 (H1N1) …; assay: BLI, Fab on immobilized biotinylated HA; conditions: remark: other sources report otherwise
[11] = target: T1, HA of A/California/04/2009 (H1N1) …; assay: BLI, 1:1 global fit; Table S2 of the text prints 48 for this strain; conditions: remark: other sources report otherwise
[12] = target: HA of A/Hong Kong/1/1968 (H3N2) (influenza A virus (H3N2)), Q91MA7; conditions: remark: other sources report otherwise

| Binder | EC50 [4] [µg/mL] | EC50 [5] [µg/mL] | EC50 [6] [µg/mL] | EC50 [7] [µg/mL] | EC50 [8] [µg/mL] | EC50 fold over wild-type rFluA-20 [3] [fold] | further results |
| --- | --- | --- | --- | --- | --- | --- | --- |
| FluA-20 (hybridoma-produced IgG) (antibody, V domains shown) VH: QVQLQESGPGLVKPSETLSLTCSVSGVSVTSDIYYWTWIRQPPGKGLEWIGYIFYNGDTNYNPSLKSRVTMSIDTSKNEFSLRLTSVTAADTAVYFCARGTEDLGYCSSGSCPNHWGQGTLVTVSS VL: DIQMTQSPSSLSASIGDRVTITCRPSQNIRSFLNWFQHKPGKAPKLLIYAASNLQSGVPSRFSGSGSGTEFTLTIRSLQPEDFATYYCQQSYNTPPTFGQGTKVEIK |  |  |  |  |  |  | EC50 [1]: 0.01 µg/mL; EC50 [2]: 0.008 µg/mL |
| rFluA-20 heavy chain mutant T96A (antibody, V domains shown) VH: QVQLQESGPGLVKPSETLSLTCSVSGVSVTSDIYYWTWIRQPPGKGLEWIGYIFYNGDTNYNPSLKSRVTMSIDTSKNEFSLRLTSVTAADTAVYFCARGAEDLGYCSSGSCPNHWGQGTLVTVSS VL: DIQMTQSPSSLSASIGDRVTITCRPSQNIRSFLNWFQHKPGKAPKLLIYAASNLQSGVPSRFSGSGSGTEFTLTIRSLQPEDFATYYCQQSYNTPPTFGQGTKVEIK | 0.04 | 0.23 | 0.1 | 0.37 | 0.07 |  | EC50 [3]: 0.11 µg/mL |
| rFluA-20 heavy chain mutant Y100aA (antibody, V domains shown) VH: QVQLQESGPGLVKPSETLSLTCSVSGVSVTSDIYYWTWIRQPPGKGLEWIGYIFYNGDTNYNPSLKSRVTMSIDTSKNEFSLRLTSVTAADTAVYFCARGTEDLGACSSGSCPNHWGQGTLVTVSS VL: DIQMTQSPSSLSASIGDRVTITCRPSQNIRSFLNWFQHKPGKAPKLLIYAASNLQSGVPSRFSGSGSGTEFTLTIRSLQPEDFATYYCQQSYNTPPTFGQGTKVEIK |  |  |  |  |  | > 100 | EC50 fold over wild-type rFluA-20 [4]: > 100 fold; EC50 fold over wild-type rFluA-20 [5]: > 100 fold; EC50 fold over wild-type rFluA-20 [6]: > 100 fold; EC50 fold over wild-type rFluA-20 [7]: > 100 fold; EC50 fold over wild-type rFluA-20 [8]: > 100 fold |
| rFluA-20 (recombinant FluA-20 IgG) (antibody, V domains shown) VH: QVQLQESGPGLVKPSETLSLTCSVSGVSVTSDIYYWTWIRQPPGKGLEWIGYIFYNGDTNYNPSLKSRVTMSIDTSKNEFSLRLTSVTAADTAVYFCARGTEDLGYCSSGSCPNHWGQGTLVTVSS VL: DIQMTQSPSSLSASIGDRVTITCRPSQNIRSFLNWFQHKPGKAPKLLIYAASNLQSGVPSRFSGSGSGTEFTLTIRSLQPEDFATYYCQQSYNTPPTFGQGTKVEIK |  |  |  |  |  |  | EC50 [9]: 0.031 µg/mL; EC50 [1]: 0.012 µg/mL |
| rFluA-20 heavy chain mutant D98A (antibody, V domains shown) VH: QVQLQESGPGLVKPSETLSLTCSVSGVSVTSDIYYWTWIRQPPGKGLEWIGYIFYNGDTNYNPSLKSRVTMSIDTSKNEFSLRLTSVTAADTAVYFCARGTEALGYCSSGSCPNHWGQGTLVTVSS VL: DIQMTQSPSSLSASIGDRVTITCRPSQNIRSFLNWFQHKPGKAPKLLIYAASNLQSGVPSRFSGSGSGTEFTLTIRSLQPEDFATYYCQQSYNTPPTFGQGTKVEIK |  |  |  |  |  |  | EC50 fold over wild-type rFluA-20 [4]: > 100 fold |
| rFluA-20 heavy chain mutant E97A (antibody, V domains shown) VH: QVQLQESGPGLVKPSETLSLTCSVSGVSVTSDIYYWTWIRQPPGKGLEWIGYIFYNGDTNYNPSLKSRVTMSIDTSKNEFSLRLTSVTAADTAVYFCARGTADLGYCSSGSCPNHWGQGTLVTVSS VL: DIQMTQSPSSLSASIGDRVTITCRPSQNIRSFLNWFQHKPGKAPKLLIYAASNLQSGVPSRFSGSGSGTEFTLTIRSLQPEDFATYYCQQSYNTPPTFGQGTKVEIK | 0.08 | 0.64 | 0.36 | 1 | 0.12 | > 100 |  |
| FluA-20 Fab (Fab, V domains shown) VH: QVQLQESGPGLVKPSETLSLTCSVSGVSVTSDIYYWTWIRQPPGKGLEWIGYIFYNGDTNYNPSLKSRVTMSIDTSKNEFSLRLTSVTAADTAVYFCARGTEDLGYCSSGSCPNHWGQGTLVTVSS VL: DIQMTQSPSSLSASIGDRVTITCRPSQNIRSFLNWFQHKPGKAPKLLIYAASNLQSGVPSRFSGSGSGTEFTLTIRSLQPEDFATYYCQQSYNTPPTFGQGTKVEIK |  |  |  |  |  |  | Kd [10]: 48 nM; Kd [11]: 46 nM |
| rFluA-20 heavy chain mutant Y34A (antibody, V domains shown) VH: QVQLQESGPGLVKPSETLSLTCSVSGVSVTSDIAYWTWIRQPPGKGLEWIGYIFYNGDTNYNPSLKSRVTMSIDTSKNEFSLRLTSVTAADTAVYFCARGTEDLGYCSSGSCPNHWGQGTLVTVSS VL: DIQMTQSPSSLSASIGDRVTITCRPSQNIRSFLNWFQHKPGKAPKLLIYAASNLQSGVPSRFSGSGSGTEFTLTIRSLQPEDFATYYCQQSYNTPPTFGQGTKVEIK | 0.07 | 0.54 | 0.21 | 0.44 | 0.1 | > 100 |  |
| rFluA-20 light chain mutant Q55A (antibody, V domains shown) VH: QVQLQESGPGLVKPSETLSLTCSVSGVSVTSDIYYWTWIRQPPGKGLEWIGYIFYNGDTNYNPSLKSRVTMSIDTSKNEFSLRLTSVTAADTAVYFCARGTEDLGYCSSGSCPNHWGQGTLVTVSS VL: DIQMTQSPSSLSASIGDRVTITCRPSQNIRSFLNWFQHKPGKAPKLLIYAASNLASGVPSRFSGSGSGTEFTLTIRSLQPEDFATYYCQQSYNTPPTFGQGTKVEIK |  |  |  |  |  |  | EC50 [12]: 0.08 µg/mL |
